According to patent publication US20190309034A1 (Boehringer Ingelheim, published 2019):
Positions count from the first letter of the chain named. Each block holds one binder with its values, some of them ahead of it.

Columns and labels:
[1] = molecular target: Recombinant soluble 60-mer human BAFF (His-HuBAFF 134-285) (human, UniProt Q9Y275 134-285); assay: cell-based or functional assay
[2] = molecular target: Recombinant soluble trimeric human BAFF (furin-cleaved human BAFF 134-285) (human, UniProt Q9Y275 134-285); assay: cell-based or functional assay

B1: 320F9C5 (antibody, V domains shown)
VH: QVTLKESGPGILQSSQTLSLTCSFSGFSLRTFGMGVGWIRQPSGKGLEWLAHIWWNDDKSSHPALKSRLTISKDTSKNQVFLKIANVDTAETATYYCVRIGPSITTVAEGFAYWGQGTLVTVSA
VL: DIVMTQSQKFMSTTVGDRVSITCKASQNVGSVVAWYQQRPGQSPTLLIYSASNRYTGVPDRFTGSGSGTDFTLTISNMQSEDLADYFCQQYSSYPLTFGAGTKLELK
Soluble 60-mer huBAFF (4 pM) Neutralization IC50 [1]: 10 pM
Soluble 60-mer huBAFF (4 pM) Neutralization IC90 [1]: 24 pM
Soluble trimeric huBAFF (50 pM) Neutralization IC50 [2]: 110 pM
Soluble trimeric huBAFF (50 pM) Neutralization IC90 [2]: 3110 pM

B2: 27I21-3C7 (antibody, V domains shown)
VH: QVQLQQSGPELVRPGTSVKISCKAPGYIFTSHWMQWVRQRPGQGLEWIGDIFPGSGTTDYNEKFKDKATVTVDRSSSSAYMQFNSLTSEDSAVYFCASGAFDYWGQGTTLTVSS
VL: DIQMTQSPSSLSASLGERVSLTCRASQDIGNRLNWLQQAPDGTIKRLIYATSSLDSGVPKRFSGSRSGSDYSLTISSLESEDFVDYYCLQYASYPFTFGTGTKLEIK
Soluble 60-mer huBAFF (4 pM) Neutralization IC50 [1]: 11 pM
Soluble 60-mer huBAFF (4 pM) Neutralization IC90 [1]: 33 pM
Soluble trimeric huBAFF (50 pM) Neutralization IC50 [2]: 55 pM
Soluble trimeric huBAFF (50 pM) Neutralization IC90 [2]: 326 pM

B4: 317H2A6 (antibody, V domains shown)
VH: QVTLKESGPGILQPSQTLSLTCSFSGFSLRTFGMGVGWIRQPSGKGLEWLAHIWWNGDKYYDPALKSRLTISKDTSENRVFLNIANVDTTDTAPYYCVRIGPSITTVAEGFAYWGQGTLVTVSA
VL: DIVMTQSQKFLSTTIGDRVSITCKASQNVGSAVVWYQQKPGQPPKLLITSASNRYSGVPDRFTGSGSGTDFTLTVSNVQSVDLADYFCQQYSNYPLTFGAGTKLELK
Soluble 60-mer huBAFF (4 pM) Neutralization IC50 [1]: 4 pM
Soluble 60-mer huBAFF (4 pM) Neutralization IC90 [1]: 13 pM
Soluble trimeric huBAFF (50 pM) Neutralization IC50 [2]: 97 pM
Soluble trimeric huBAFF (50 pM) Neutralization IC90 [2]: 327 pM

B5: 435A6B3 (antibody, V domains shown)
VH: EVQLQQSGPELVKPGASMKMSCKASGYTFTSYVMHWMKQKPGQGLEWIGYLNPNNDGTKYNEKFKGKATLTSDKSSSTAYMELSSLTSEDSAVYYCARGDYSNYFYWYFDVWGAGTTVSVSS
VL: DIKMTPSPSSMYASLGERVTITCKASQDINRYLSWFQQKPGKSPKTLIYRANRLVDGVPSRFSGSGSGQDYSLTISSLEYEDMGIYYCLQYDEFPYTFGGGTKLEIK
Soluble 60-mer huBAFF (4 pM) Neutralization IC50 [1]: 10 pM
Soluble 60-mer huBAFF (4 pM) Neutralization IC90 [1]: 26 pM
Soluble trimeric huBAFF (50 pM) Neutralization IC50 [2]: 23 pM
Soluble trimeric huBAFF (50 pM) Neutralization IC90 [2]: 294 pM

B6: 443C11A12 (antibody, V domains shown)
VH: B5 VH with M18V, K23T, M34I, N52H, P53R, G66V, K74E, S77N
VL: B5 VL with R31S, F98S
Soluble 60-mer huBAFF (4 pM) Neutralization IC50 [1]: 13 pM
Soluble 60-mer huBAFF (4 pM) Neutralization IC90 [1]: 30 pM
Soluble trimeric huBAFF (50 pM) Neutralization IC50 [2]: 33 pM
Soluble trimeric huBAFF (50 pM) Neutralization IC90 [2]: 309 pM

B8: 436H6A9 (antibody, V domains shown)
VH: QLQQSGPELVKPGASVKISCKASGYTFTDNFINWVKQRPGQGLEWIGWISPGSGNTKNNEKFKGKATVTVDTSSSTAYMQLSSLTSEDSAVYFCARGIIYYYDGTYPYALDYWGQGTSVTVSS
VL: DIVLTQSPASLGVSLGQRATISCRATKGVTKSGYSYIHWYQQKPGQPPKLLIYLASNLQSGVPARFSGSGSGTDFTLNIHPVEEEDAATYYCQHSRELPLTFGAGTKLELK
Soluble 60-mer huBAFF (4 pM) Neutralization IC50 [1]: 10 pM
Soluble 60-mer huBAFF (4 pM) Neutralization IC90 [1]: 27 pM
Soluble trimeric huBAFF (50 pM) Neutralization IC50 [2]: 26 pM
Soluble trimeric huBAFF (50 pM) Neutralization IC90 [2]: 266 pM

B9: 436H2C12 (antibody, V domains shown)
VH: QVQLQQSGPELVKPGASVKLSCKASGYTFSDYTIHWVKQSPGQGLEWIGWIYPGRGNTKYNDKFKGKATMTADKSSSTAYMQLSSLTSEESAVYFCARDYRRYYAMDYWGQGTSVTVSS
VL: NIVLTQSPASLAVSLGQRATISCRASESVDNYGNSFMHWYQQKPGQPPKLLISLASNLESGVPARFSGSGSRTDFTLTIDPVEADDAATYYCQQNNEDPRTFGGGTKLEIK
Soluble 60-mer huBAFF (4 pM) Neutralization IC50 [1]: 15 pM
Soluble 60-mer huBAFF (4 pM) Neutralization IC90 [1]: 37 pM
Soluble trimeric huBAFF (50 pM) Neutralization IC50 [2]: 27 pM
Soluble trimeric huBAFF (50 pM) Neutralization IC90 [2]: 408 pM

B10: 441E6F2 (antibody, V domains shown)
VH: RVQLKESGPGLVAPSQSLFITCTVSGFSLTTYEINWVRQSPGKGLEWLGVIWTGGTTKYNSAFISRLSITKDNSKSLVFLKMSSLQTDDTAIYYCVREGRRYYAMDYWGQGTSVTVSS
VL: B9 VL with A25T, N31S, H38F, Y40F, P47A, S53F, A55T, N95S
Soluble 60-mer huBAFF (4 pM) Neutralization IC50 [1]: 16 pM
Soluble 60-mer huBAFF (4 pM) Neutralization IC90 [1]: 37 pM
Soluble trimeric huBAFF (50 pM) Neutralization IC50 [2]: 43 pM
Soluble trimeric huBAFF (50 pM) Neutralization IC90 [2]: 293 pM

B11: 440E9D12 (antibody, V domains shown)
VH: QVRLRESGPGLVAPSQNLFITCTVSGFSLTDYEINWVRQPPGKNLEWLGVIWTGGGTKYNSVLISRLNISKDNSKRQVFFKMTSLQTDDTAIYYCVREGRRYYAMDYWGQGTSVTVSS
VL: B9 VL with A12P, I21M, E27K, N31S, N34T, Q42H, K43R, A64G, A84P, K107T
Soluble 60-mer huBAFF (4 pM) Neutralization IC50 [1]: 11 pM
Soluble 60-mer huBAFF (4 pM) Neutralization IC90 [1]: 31 pM
Soluble trimeric huBAFF (50 pM) Neutralization IC50 [2]: 31 pM
Soluble trimeric huBAFF (50 pM) Neutralization IC90 [2]: 259 pM

B16: 319B8A12 (antibody, V domains shown)
VH: KVTLKESGPGILQPSQTLSLTCSFSGFSLRTFGMGVGWIRQPSGKGLEWLAHIWWNDEKYYNPDLKSRLTVSKDSSKNQVFLTIANVDTSDTAPYYCTRVGPSISTVAEGFPYWGQGTLVTVSA
VL: DIVMTQSQKFVSTRVGDRVSITCKASQNVGAAVVWYQQKSGQPPKLLIRSASNRYIGVPDRFTGSGSGTDFTLTVSDVQSGDLADYFCQQYSNYPLTFGAGTKLELTR
Soluble 60-mer huBAFF (4 pM) Neutralization IC50 [1]: 8 pM
Soluble 60-mer huBAFF (4 pM) Neutralization IC90 [1]: 24 pM
Soluble trimeric huBAFF (50 pM) Neutralization IC50 [2]: 91 pM
Soluble trimeric huBAFF (50 pM) Neutralization IC90 [2]: 331 pM

Second part, the binder after the results:

Soluble 60-mer huBAFF (4 pM) Neutralization IC50 [1]: 13 pM
Soluble 60-mer huBAFF (4 pM) Neutralization IC90 [1]: 39 pM
Soluble trimeric huBAFF (50 pM) Neutralization IC50 [2]: 28 pM
Soluble trimeric huBAFF (50 pM) Neutralization IC90 [2]: 329 pM
B3: 537G7A6 (antibody, V domains shown)
VH: QVQLKESGPGLVAPSQSLSITCTVSGFSLSRYSVHWIRQSPGKGLEWLGMIWGGGNTDYNSGLKSRLSISKDNSKSQVFLKMNSLENDDTAMYYCASPSLYYYDVAWFPYWGQGTLVTVSA
VL: DIVLTQSPASLAVSVGQRATVSCRVSESVDRYADSFMHWYQQKPGQPPKLLIYLASNLESGVPARFSGSGSRTDFTLTIDPVEADDAATYYCQQNKEDPYTFGGGTKLELK

Soluble 60-mer huBAFF (4 pM) Neutralization IC50 [1]: 13 pM
Soluble 60-mer huBAFF (4 pM) Neutralization IC90 [1]: 30 pM
Soluble trimeric huBAFF (50 pM) Neutralization IC50 [2]: 35 pM
Soluble trimeric huBAFF (50 pM) Neutralization IC90 [2]: 324 pM
B7: 560H2A7 (antibody, V domains shown)
VH: EVKLVESGGGLVQPGGSLSLSCAGSGFTFSDYYMSWVRQPPGKALEWLALIRNKAPGYTTEYSASVKGRFTISRDNSQSILYLQMNALRPEDSATYYCARVLRRADCLDYWGQGTALTVSS
VL: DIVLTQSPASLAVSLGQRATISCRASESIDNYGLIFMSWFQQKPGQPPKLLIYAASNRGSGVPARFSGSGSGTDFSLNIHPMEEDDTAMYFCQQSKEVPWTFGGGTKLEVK

Soluble 60-mer huBAFF (4 pM) Neutralization IC50 [1]: 24 pM
Soluble 60-mer huBAFF (4 pM) Neutralization IC90 [1]: 130 pM
Soluble trimeric huBAFF (50 pM) Neutralization IC50 [2]: 36 pM
Soluble trimeric huBAFF (50 pM) Neutralization IC90 [2]: 602 pM
B12: 450A2A7 (antibody, V domains shown)
VH: B9 VH with S30T, T33S, R55S, G56D, T69S, S77R, A79V, Q82H
VL: IVLTQSSASLAVSLGQRATISCRASESVDRYGNSLMHWYQQKPGQPPKLLIYIASNLESGVPARFSGSGSRTDFTLTIDPVEADDAATYYCQQNNEDPRTFGGGTKLEIK

Soluble 60-mer huBAFF (4 pM) Neutralization IC50 [1]: 12 pM
Soluble 60-mer huBAFF (4 pM) Neutralization IC90 [1]: 35 pM
Soluble trimeric huBAFF (50 pM) Neutralization IC50 [2]: 25 pM
Soluble trimeric huBAFF (50 pM) Neutralization IC90 [2]: 284 pM
B13: 444G1A10 (antibody, V domains shown)
VH: B10 VH
VL: B9 VL with N31S, H38F, Y40F, P47A, S53F, A55T, P81R, N95S

Soluble 60-mer huBAFF (4 pM) Neutralization IC50 [1]: 234 pM
Soluble 60-mer huBAFF (4 pM) Neutralization IC90 [1]: 1980 pM
Soluble trimeric huBAFF (50 pM) Neutralization IC50 [2]: 110 pM
Soluble trimeric huBAFF (50 pM) Neutralization IC90 [2]: 257 pM
B14: 551H4D6 (antibody, V domains shown)
VH: EVQLQQSGAELVRPGASVELSCTASGFNIKNDYLHWVKQRPEQGLEWIGWIDSANDKTKYAPKFQDKATITADPSSNTAYLQLSSLTSEDTAVYYCTRVGVQDGYYVRDFDYWGQGTTLTVSS
VL: DIVLTQSPASLAVSLGQRATMSCRASESVDSYGNSFIHWYQQKPGQPPRLLIYRASNLNSGIPARFSGSGSRTDFTLTISSVEADDVATYYCHQNNEDPRTFGGGTKLEIK

Soluble 60-mer huBAFF (4 pM) Neutralization IC50 [1]: 12 pM
Soluble 60-mer huBAFF (4 pM) Neutralization IC90 [1]: 44 pM
Soluble trimeric huBAFF (50 pM) Neutralization IC50 [2]: 29 pM
Soluble trimeric huBAFF (50 pM) Neutralization IC90 [2]: 378 pM
B15: 606H7F8 (antibody, V domains shown)
VH: VQLVESGGGLVKPGGSLKLSCAASGFTFSSYDMSWVRQTPEKRLEWVAAINSYGVNTYYPDTVKDRFTISRDNAKNTLYLQMSSLRSEDTALYYCARLLIGPYYYAMDYWGQGTSVTVSS
VL: DIQMTQSPASLSASVGETVTITCRASGNIHNYLAWYQQKQGKSPQLLVYNAKTLADGVPSRFSGSGSGTQFSLKINSLQPEDFGSYYCQHFWSTPYTFGGGTKLEIK
